B1: FLAG-tagged FBXO44 FBA domain (FBXO44^FBA) [human] / RGS2^5–16 peptide (RGS2 degron, Met^5–Met^16) [not stated] (parent complex)
chain 1: FYFLRSLHRNLLHNPCAEEGFEFWSLDVNGGDEWKVEDLSRDQRKEFPNDQVKKYFVTSYYTCLKSQVVDLKAEGYWEELMDTTRPDIEVKDWFAARPDCGSKYQLCVQLLSSAHAPLGTFQPDPATIQQKSDAKWREVSHTFSNYPPGVRYIWFQHGGVDTHYWAGWYGPRVTNSSITIGP
chain 2: MFLAVQHDCRPM

In the first experiment the parent is B1. Nature of the experiment: peptide microarray (PEPperPRINT), α-FLAG fluorescence; three independent experiments with three technical replicates each; parent: 100; read off a plot.
As to chain 2 MFLAVQHDRRPM [chain 2 C9R], the percent of parent is around 130 % Parent Peptide.
chain 2 MFLAVQHDCRKM [chain 2 P11K]: the percent of parent was around 150 % Parent Peptide.
Turning to chain 2 MFLAVQHDCRRM [chain 2 P11R], the percent of parent was around 260 % Parent Peptide.
With chain 2 MFLAVQHRCRPM [chain 2 D8R], the percent of parent is around 280 % Parent Peptide.
As for chain 2 MFLAVQHKCRPM [chain 2 D8K], the percent of parent is around 220 % Parent Peptide.
Take chain 2 MFLAVQRDCRPM [chain 2 H7R]: the percent of parent is around 140 % Parent Peptide.
Consider chain 2 MFLAVQHDCRPR [chain 2 M12R], for which the percent of parent is around 200 % Parent Peptide.

In another experiment the parent is B1. The description is as above. The source holds these as a separate data set.
On to chain 2 MFLAVQHDRRPM [chain 2 C9R], for which the percent of parent was around 130 % Parent.

The variants in a further experiment derive from B1. The experiment is described as above. The source holds these as a separate data set.
With chain 2 MFLAVQHDCRTM [chain 2 P11T], the percent of parent was around 85 % Parent.
chain 2 MFLAVQHDCRKM [chain 2 P11K]: the percent of parent was around 150 % Parent.
For the variant chain 2 MFLAVQHDCRSM [chain 2 P11S], the percent of parent is around 100 % Parent.
Consider chain 2 MFLAVQHDCRFM [chain 2 P11F], for which the percent of parent is around 100 % Parent.
In the case of chain 2 MFLAVQHDCRGM [chain 2 P11G], the percent of parent is around 68 % Parent.
Consider chain 2 MFLAVQHDCRAM [chain 2 P11A], for which the percent of parent is around 72 % Parent.
Take chain 2 MFLAVQHDCREM [chain 2 P11E]: the percent of parent is around 88 % Parent.
Same read-out and setting: with chain 2 MFLAVQHDCRYM [chain 2 P11Y] the figure was around 110 % Parent; with chain 2 MFLAVQHDCRHM [chain 2 P11H], around 85 % Parent; with chain 2 MFLAVQHDCRMM [chain 2 P11M], around 100 % Parent.
In the case of chain 2 MFLAVQHDCRQM [chain 2 P11Q], the percent of parent is around 90 % Parent.
With chain 2 MFLAVQHDCRRM [chain 2 P11R], the percent of parent was around 260 % Parent.

Variants of B1 are the subject of another experiment. The description is as above. This is another data set of the same source.
Take chain 2 MFLAVQHYCRPM [chain 2 D8Y]: the percent of parent was around 130 % Parent.
For chain 2 MFLAVQHRCRPM [chain 2 D8R], the percent of parent was around 280 % Parent.
With chain 2 MFLAVQHVCRPM [chain 2 D8V], the percent of parent was around 140 % Parent.
On the same count and under the same terms, with chain 2 MFLAVQHWCRPM [chain 2 D8W] the figure was around 150 % Parent; with chain 2 MFLAVQHTCRPM [chain 2 D8T], around 130 % Parent; with chain 2 MFLAVQHLCRPM [chain 2 D8L], around 130 % Parent.
As for chain 2 MFLAVQHPCRPM [chain 2 D8P], the percent of parent was around 160 % Parent.
Turning to chain 2 MFLAVQHKCRPM [chain 2 D8K], the percent of parent is around 220 % Parent.
For chain 2 MFLAVQHGCRPM [chain 2 D8G], the percent of parent is around 130 % Parent.
The same measure, in the same setting: with chain 2 MFLAVQHICRPM [chain 2 D8I] the figure was around 140 % Parent; with chain 2 MFLAVQHMCRPM [chain 2 D8M], around 140 % Parent.
Same read-out and setting: with chain 2 MFLAVQHHCRPM [chain 2 D8H] the figure was around 130 % Parent.
Regarding chain 2 MFLAVQHFCRPM [chain 2 D8F], the percent of parent was around 130 % Parent.
The same measure, in the same setting: then chain 2 MFLAVQHECRPM [chain 2 D8E], with around 100 % Parent; and chain 2 MFLAVQHQCRPM [chain 2 D8Q], with around 160 % Parent; and chain 2 MFLAVQHCCRPM [chain 2 D8C], with around 140 % Parent.
Take chain 2 MFLAVQHACRPM [chain 2 D8A]: the percent of parent was around 120 % Parent.
On the same count and under the same terms, then chain 2 MFLAVQHNCRPM [chain 2 D8N], with around 150 % Parent; and chain 2 MFLAVQHSCRPM [chain 2 D8S], with around 160 % Parent.

In the next experiment the parent is B1. Described as above. The source holds these as a separate data set.
Turning to chain 2 MFLAVQRDCRPM [chain 2 H7R], the percent of parent is around 140 % Parent.

Variants of B1 are the subject of a further experiment. The experiment is described as above. This is another data set of the same source.
chain 2 MFLAVQHDCLPM [chain 2 R10L]: the percent of parent was around 82 % Parent.
As for chain 2 MFLAVQHDCWPM [chain 2 R10W], the percent of parent was around 120 % Parent.
Take chain 2 MFLAVQHDCHPM [chain 2 R10H]: the percent of parent was around 75 % Parent.
In the case of chain 2 MFLAVQHDCKPM [chain 2 R10K], the percent of parent was around 80 % Parent.
On to chain 2 MFLAVQHDCNPM [chain 2 R10N], for which the percent of parent is around 82 % Parent.
For the variant chain 2 MFLAVQHDCFPM [chain 2 R10F], the percent of parent was around 95 % Parent.
The same measure, in the same setting: with chain 2 MFLAVQHDCAPM [chain 2 R10A] the figure was around 72 % Parent.
On to chain 2 MFLAVQHDCMPM [chain 2 R10M], for which the percent of parent was around 88 % Parent.
With chain 2 MFLAVQHDCPPM [chain 2 R10P], the percent of parent is around 80 % Parent.
As for chain 2 MFLAVQHDCDPM [chain 2 R10D], the percent of parent is around 110 % Parent.
On to chain 2 MFLAVQHDCQPM [chain 2 R10Q], for which the percent of parent is around 80 % Parent.
As to chain 2 MFLAVQHDCIPM [chain 2 R10I], the percent of parent was around 78 % Parent.
Same read-out and setting: with chain 2 MFLAVQHDCCPM [chain 2 R10C] the figure was around 110 % Parent; with chain 2 MFLAVQHDCVPM [chain 2 R10V], around 85 % Parent; with chain 2 MFLAVQHDCGPM [chain 2 R10G], around 78 % Parent.
As to chain 2 MFLAVQHDCEPM [chain 2 R10E], the percent of parent was around 110 % Parent.
On to chain 2 MFLAVQHDCSPM [chain 2 R10S], for which the percent of parent was around 85 % Parent.
In the case of chain 2 MFLAVQHDCTPM [chain 2 R10T], the percent of parent is around 80 % Parent.
On the same count and under the same terms, then chain 2 MFLAVQHDCYPM [chain 2 R10Y], with around 120 % Parent.

Another experiment covers variants of B1. Described as above. This is another data set of the same source.
As for chain 2 MFLAVQHDCRPR [chain 2 M12R], the percent of parent is around 200 % Parent.

The values are drawn from article PMC12554172 (2025).
